# Key:
# [1] = target: human insulin receptor isoform B (human) (UniProt P06213); experiment: competitive displacement of 125I-insulin from receptor
# [2] = target: human insulin receptor isoform B (human) (UniProt P06213); experiment: competitive displacement of 125I-human insulin, FLAG-tagged receptor captured on anti-FLAG plate; settings: scale: % of the affinity of human insulin for IR-A
# His^A8, Asp^B10, Asp^B28, Pro^B29 insulin (two chain analogue) (ligand), sequence (chain): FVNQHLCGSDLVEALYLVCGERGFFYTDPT
# His^A8, Asp^B10, Asp^B28, Pro^B29 insulin (two chain analogue) (ligand), sequence (chain): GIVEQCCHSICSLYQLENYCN
Kd [1],relative affinity (relative to human insulin) [1],relative affinity [2],Substance
0.01 nM,4.7,,"His^A8, Asp^B10, Asp^B28, Pro^B29 insulin (two chain analogue) (ligand)"
,,0.7,Insulin-like Growth Factor 1 (from UniProt P05019 49-118) (ligand)
,,4,insulin-like growth factor II (from UniProt P01344 25-91) (ligand)

# — patent publication US20110195896A1, “ISOFORM-SPECIFIC INSULIN ANALOGUES” (CASE WESTERN RESERVE UNIVERSITY, priority 2008, published 2011)
